Laboratory results from article PMC2808226 (Molecular Biology of the Cell, 2010).

B1: caveolin-3-c-myc (natural protein)
chain: MMTEEHTDLEARIIKDIHCKEIDLVNRDPKNINEDIVKVDFEDVIAEPEGTYSFDGVWKVSFTTFTVSKYWCYRLLSTLLGVPLALLWGFLFACISFCHIWAVVPCIKSYLIEIQCISHIYSLCIRTFCNPLFAALGQVCSNIKVVLRREG

Assays:
[1] = biological target: nicotinic acetylcholine receptor (mouse (endogenous in gastrocnemius muscle and in myotubes)) (UniProt P04756); assay: pull-down
nAChR-α-c-myc = nAChR-α-c-myc (UniProt P04756 21-457); assay: co-IP
Sequence of nAChR-α-c-myc (P04756 21-457): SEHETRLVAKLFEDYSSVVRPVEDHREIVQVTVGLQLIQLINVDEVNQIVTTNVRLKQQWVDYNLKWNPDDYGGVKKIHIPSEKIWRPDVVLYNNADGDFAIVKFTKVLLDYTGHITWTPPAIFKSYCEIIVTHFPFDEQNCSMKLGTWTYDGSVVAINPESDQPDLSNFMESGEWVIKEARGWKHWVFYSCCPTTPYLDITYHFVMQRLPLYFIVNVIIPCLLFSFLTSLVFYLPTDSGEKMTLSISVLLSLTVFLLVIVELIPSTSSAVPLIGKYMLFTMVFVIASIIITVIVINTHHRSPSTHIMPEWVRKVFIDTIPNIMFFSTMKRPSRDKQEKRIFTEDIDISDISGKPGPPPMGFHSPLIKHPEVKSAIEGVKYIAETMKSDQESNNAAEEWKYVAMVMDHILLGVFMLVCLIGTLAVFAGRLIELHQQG

Sequence of nicotinic acetylcholine receptor (mouse (endogenous in gastrocnemius muscle and in myotubes)) (P04756 whole entry, looked up): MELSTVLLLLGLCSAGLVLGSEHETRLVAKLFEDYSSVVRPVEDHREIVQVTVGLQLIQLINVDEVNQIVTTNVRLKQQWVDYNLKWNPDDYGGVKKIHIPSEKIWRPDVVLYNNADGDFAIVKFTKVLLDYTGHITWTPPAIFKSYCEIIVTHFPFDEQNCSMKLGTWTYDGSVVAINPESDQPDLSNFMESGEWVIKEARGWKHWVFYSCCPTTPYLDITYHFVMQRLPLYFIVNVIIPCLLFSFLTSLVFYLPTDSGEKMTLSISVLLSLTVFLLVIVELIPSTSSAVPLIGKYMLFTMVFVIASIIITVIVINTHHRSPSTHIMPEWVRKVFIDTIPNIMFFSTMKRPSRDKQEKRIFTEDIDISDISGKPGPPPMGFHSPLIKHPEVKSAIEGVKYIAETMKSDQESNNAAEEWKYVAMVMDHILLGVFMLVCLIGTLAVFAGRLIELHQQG

Molecule	percent of caveolin-3 that interacts with the nAChR, after agrin treatment [1] [%]	stoichiometry N (nAChR-α-c-myc) [caveolin-3 per nAChR]	percent of caveolin-3 that interacts with the nAChR, resting conditions [1] [%]
caveolin-3 (from UniProt P51637 1-151) (natural protein)	5		
B1		~14	0.25
